In publication PMC6526949 (Biochemistry, 2018):

Biological target: the molecule itself
Experiment: SEC

B1: Escherichia coli O-acetylserine sulfhydrylase isoenzyme B (CysM) (enzyme, UniProt P16703 1-303, looked up)
chain: MSTLEQTIGNTPLVKLQRMGPDNGSEVWLKLEGNNPAGSVKDRAALSMIVEAEKRGEIKPGDVLIEATSGNTGIALAMIAALKGYRMKLLMPDNMSQERRAAMRAYGAELILVTKEQGMEGARDLALEMANRGEGKLLDQFNNPDNPYAHYTTTGPEIWQQTGGRITHFVSSMGTTGTITGVSRFMREQSKPVTIVGLQPEEGSSIPGIRRWPTEYLPGIFNASLVDEVLDIHQRDAENTMRELAVREGIFCGVSSGGAVAGALRVAKANPDAVVVAIICDRGDRYLSTGVFGEEHFSQGAGI
modifications: PLP cofactor ligated through a Schiff base to the ε-amino group of Lysine-41 (PLP:CysM ratio approximately 0.57:1)
stoichiometry N: 2
